This is an account of results in paper doi:10.64898/2025.12.16.694761.

This assay has as its target Nitrous oxide reductase NosZ (clade I) of Trinickia sp. Z7 (Trinickia sp. Z7). Description: cryo-EM structure.

As usually defined, the stoichiometry N is a count of units in the complex or per binding partner. In turn, “Nitrous oxide reductase NosZ (clade I) of Trinickia sp. Z7 (enzyme)” had a stoichiometry N of 2.
